According to paper PMC10636607:
Like-named read-outs stand apart in the source and are kept apart here.

Key:
Assay in all cases: BLI
SARS-CoV-2 spike = biological target: SARS-CoV-2 spike
[1] = biological target: biotinylated SARS-CoV-2 fusion peptide
influenza HA = biological target: influenza HA
[2] = biological target: HCV E2 envelope glycoprotein
[3] = biological target: HC84.26.5D Fab VH G50R (human)
Chain of HC84.26.5D Fab VH G50R (human) (heavy, as listed by the source, chain 1 of 2): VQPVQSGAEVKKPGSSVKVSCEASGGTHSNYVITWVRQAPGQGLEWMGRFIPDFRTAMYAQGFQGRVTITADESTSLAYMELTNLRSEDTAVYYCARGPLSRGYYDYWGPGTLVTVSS
Chain of HC84.26.5D Fab VH G50R (human) (light, as listed by the source, chain 2 of 2): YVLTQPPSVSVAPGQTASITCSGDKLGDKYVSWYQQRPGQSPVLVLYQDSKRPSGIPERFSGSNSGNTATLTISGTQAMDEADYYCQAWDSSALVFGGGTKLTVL

P008_60 (WT) H:S52R
ratio to parent (SARS-CoV-2 spike): > 100

COV44-62 Fab (WT) H:R50W
ratio to parent [1]: > 100

COVOX-316 (WT) H:W50R
ratio to parent (SARS-CoV-2 spike): > 100

8F8 (WT) H:S31R
ratio to parent (influenza HA): > 100

Ab326 (WT) H:V50F
ratio to parent (SARS-CoV-2 spike; read off a plot): 9.4

HC33.8 (WT) H:S52Y
ratio to parent [2]: > 100

HCV (isolate H77) E2 domain protein (domain or fragment)
fold change in KD against the wild-type Fab [3]: 6 fold

HCV1 (WT) H:W52S
ratio to parent [2]: > 100

H1244 (WT) H:S32Y
ratio to parent (influenza HA): > 100
